Patent US20200276294, “Methods and Compositions for Activation of Innate Immune Responses Through RIG-I Like Receptor Signaling” (University of Washington through its Center for …, published 2020)
Residue numbers refer to the chain shown, from its start.

Columns and labels:
RIG-I (full-length) [1] = molecular target: T1, RIG-I (full-length) (UniProt O95786 O95786:1-925); experiment: EMSA; EC50 over all constructs 2.28-7.31 pmol, individual value in figure only; high signaling
T1 sequence: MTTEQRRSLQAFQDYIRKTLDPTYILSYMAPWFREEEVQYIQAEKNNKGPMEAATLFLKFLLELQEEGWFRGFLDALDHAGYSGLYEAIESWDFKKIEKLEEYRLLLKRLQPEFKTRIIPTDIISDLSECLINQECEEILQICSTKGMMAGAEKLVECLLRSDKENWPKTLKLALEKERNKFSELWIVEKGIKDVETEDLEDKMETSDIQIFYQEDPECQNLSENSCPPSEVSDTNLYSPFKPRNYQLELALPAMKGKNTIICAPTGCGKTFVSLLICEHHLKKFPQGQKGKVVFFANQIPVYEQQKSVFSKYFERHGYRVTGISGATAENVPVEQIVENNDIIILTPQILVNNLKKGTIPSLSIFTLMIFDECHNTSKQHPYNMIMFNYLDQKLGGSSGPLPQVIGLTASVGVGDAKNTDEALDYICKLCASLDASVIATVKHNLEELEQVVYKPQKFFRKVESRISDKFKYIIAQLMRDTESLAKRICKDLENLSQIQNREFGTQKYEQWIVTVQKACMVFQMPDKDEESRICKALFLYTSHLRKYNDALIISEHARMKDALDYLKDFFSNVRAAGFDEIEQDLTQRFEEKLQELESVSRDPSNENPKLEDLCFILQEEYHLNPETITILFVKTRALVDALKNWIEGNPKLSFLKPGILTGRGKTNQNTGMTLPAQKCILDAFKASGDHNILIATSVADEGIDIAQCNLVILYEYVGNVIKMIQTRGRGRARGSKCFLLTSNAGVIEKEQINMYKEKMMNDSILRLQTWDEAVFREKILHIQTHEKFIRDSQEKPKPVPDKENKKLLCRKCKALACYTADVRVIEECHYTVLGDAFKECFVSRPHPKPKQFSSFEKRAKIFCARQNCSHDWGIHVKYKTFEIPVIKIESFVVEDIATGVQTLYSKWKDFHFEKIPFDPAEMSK

RIG-I (full-length) [2] = molecular target: T1, RIG-I (full-length); experiment: EMSA; no binding at 0-10 pmol RIG-I; limited RD protection in trypsin assay; conditions: stem-loops
RIG-I (full-length) [3] = molecular target: T1, RIG-I (full-length); experiment: EMSA; EC10 1.42 pmol RIG-I; >50% of RNA bound at 8 pmol; 10 pmol RNA, 20 mM Tris pH 8.0, 1.5 mM MgCl2, 37 C; conditions: stem-loops
RIG-I (full-length) [4] = molecular target: T1, RIG-I (full-length); experiment: footprint; limited trypsin proteolysis, RD and helicase+CARDs protected; AMP-PNP
RIG-I (full-length) [5] = molecular target: T1, RIG-I (full-length); experiment: footprint; limited trypsin proteolysis, RD and helicase+CARDs protected; EMSA not possible
Description: RIG-I is maintained in an auto-repressed conformation in uninfected cells where the CARDs interact with either the C-terminal repressor domain (RD), the helicase insertion domain (Hel2i), or both domains. […] To further assess RNA interactions with RIG-I, and to determine how HCV PAMP RNA interacts with the helicase domain and RD of RIG-I, limited-trypsin proteolysis of RIG-I/RNA complexes were conducted for nine RNA constructs selected to represent a range of PAMP activity (FIG. 3). RIG-I is highly sensitive to trypsin proteolysis in the absence of PAMP RNA; however, upon binding to an RNA ligand RIG-I undergoes conformational changes that protect the RD and other RNA-bound domains from trypsin digestion.
Various amounts of RNA (0-10 pmol) were mixed with 30 pmol purified RIG-I protein, 2 μl of 5× reaction buffer (20 mM Tris-HCl, pH 8.0; 1.5 mM MgCl₂; 1.5 mM DTT; 70 mM KCl), 0.67 μl AMP-PNP (10 mg/ml), and nuclease-free water up to 10 μl total volume. Reactions were incubated for 5 minutes at room temperature. […] SDS-PAGE Laemmli sample buffer (Bio-Rad) was then added to the samples and reaction products were analyzed by SDS-PAGE followed by silver stain using the SilverQuest silver staining kit (Invitrogen) as per the manufacturer's instructions.

B1: Con1 pU/UC (ssRNA)
RNA: GGCCAUCCUGUUUUUUUCCCUUUUUUUUUUUCUUUUUUUUUUUUUUUUUUUUUUUUUUUUUUUUUUCUCCUUUUUUUUUCCUCUUUUUUUCCUUUUCUUUCCUUU
modifications: 5'-triphosphate; three G at 5' end
RIG-I (full-length) [1]
  binding result: binds

B2: X-region (ssRNA)
RNA: GGUGGCUCCAUCUUAGCCCUAGUCACGGCUAGCUGUGAAAGGUCCGUGAGCCGCUUGACUGCAGAGAGUGCUGAUACUGGCCUCUCUGCAGAUCAAGU
modifications: 5'-triphosphate
RIG-I (full-length) [2]
  binding result: no binding

B3: X-region-U34 (ssRNA)
RNA: GGGUGGCUCCAUCUUAGCCCUAGUCACGGCUAGCUGUGAAAGGUCCGUGAGCUUUUUUUUUUUUUUUUUUUUUUUUUUUUUUUUUUCGCUUGACUGCAGAGAGUGCUGAUACUGGCCUCUCUGCAGAUCAAGU
modifications: 5'-triphosphate
RIG-I (full-length) [3]
  EC50: < 8 pmol

B4: U17core (ssRNA)
RNA: GGCCAUCCUGUUUUUUUCCCUUUUUUUUUUUCUUUUUUUUUUUUUUUUUCUCCUUUUUUUUUCCUCUUUUUUUCCUUUUCUUUCCUUUCCCCCCCCCCCCCCCCC
modifications: 5'-triphosphate; three G at 5' end
RIG-I (full-length) [4]
  binding result: binds

B5: poly-U 62-C (ssRNA)
RNA: UUUUUUUUUUUUUUUUUUUUUUUUUUUUUUUUUUUUUUUUUUUUCUUUUUUUUUUUUUUUUU
modifications: 5'-triphosphate; three G at 5' end
RIG-I (full-length) [4]
  binding result: binds

B6: poly-U 62 (ssRNA)
RNA: B5 RNA with C45U
modifications: 5'-triphosphate; three G at 5' end
RIG-I (full-length) [5]
  binding result: binds

B7: JFH1 pU/UC (ssRNA)
RNA: ACUGUUCCUUUUUUUUUUUUUUUUUUUUUUUUUUUUUUUUUUUUUUUUUUUCUUUUUUUUUUUUUUCCCUCUUUCUUCCCUUCUCAUCUUAUUCUACUUUCUUUCUU
modifications: 5'-triphosphate; three G at 5' end
RIG-I (full-length) [4]
  binding result: binds
